Assay results as given in IntAct's records for PubMed 26948053.

B1: N-terminal EF-hand calcium-binding protein 3 (Homo sapiens), Q96P71-2 (parent)
chain: MACAGLLTVCLLRPPAPQPQPQTPRHPQLAPDPGPAGHTLFQDVFRRADKNDDGKLSFEEFQNYFADGVLSLGELQELFSGIDGHLTDNLETEKLCDYFSEHLGVYRPVLAALESLNRAVLAAMDATKLEYERASKVDQFVTRFLLRETVSQLQALQSSLEGASDTLEAQAHGWRSDAESVEAQSRLCGSRRAGRRALRSVSRSSTWSPGSSDTGRSSEAEMQWRLQVNRLQELIDQLECKAPRLEPLREEDLAKGPDLHILMAQRQVQVAEEGLQDFHRALRCYVDFTGAQSHCLHVSAQKMLDGASFTLYEFWQDEASWRRHQQSPGSKAFQRILIDHLRAPDTLTTVFFPASWWIMNNN
partner: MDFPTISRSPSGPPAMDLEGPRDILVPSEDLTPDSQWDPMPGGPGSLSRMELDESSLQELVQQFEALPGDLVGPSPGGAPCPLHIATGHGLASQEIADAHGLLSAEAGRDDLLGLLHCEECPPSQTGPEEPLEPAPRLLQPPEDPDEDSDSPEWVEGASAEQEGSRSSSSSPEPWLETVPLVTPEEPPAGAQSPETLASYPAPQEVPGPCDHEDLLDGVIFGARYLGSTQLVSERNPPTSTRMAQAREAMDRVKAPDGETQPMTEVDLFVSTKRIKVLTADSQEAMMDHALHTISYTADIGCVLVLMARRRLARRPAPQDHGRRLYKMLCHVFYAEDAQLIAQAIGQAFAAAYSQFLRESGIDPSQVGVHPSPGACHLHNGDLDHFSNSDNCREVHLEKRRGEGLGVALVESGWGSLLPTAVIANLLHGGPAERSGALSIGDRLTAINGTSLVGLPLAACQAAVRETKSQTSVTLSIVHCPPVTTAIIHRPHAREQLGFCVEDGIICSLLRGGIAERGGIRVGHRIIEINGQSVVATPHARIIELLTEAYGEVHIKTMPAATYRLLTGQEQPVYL

Variants of: B1
Conditions: with apba3_human APBA3, O96018

**Q.** How did the “effect of a mutation on the interaction” value turn out when H324A was run?
**A.** with no effect
